Assay results taken from patent publication US20110177071A1 (PERSEID THERAPEUTICS, published 2011).
Residue numbers refer to the chain shown, from its start.

T1: human CD86-murine Ig fusion protein (human)
T1 construct: Bought (Ancell #509-820); also called hCD86-mIg
T1 chain: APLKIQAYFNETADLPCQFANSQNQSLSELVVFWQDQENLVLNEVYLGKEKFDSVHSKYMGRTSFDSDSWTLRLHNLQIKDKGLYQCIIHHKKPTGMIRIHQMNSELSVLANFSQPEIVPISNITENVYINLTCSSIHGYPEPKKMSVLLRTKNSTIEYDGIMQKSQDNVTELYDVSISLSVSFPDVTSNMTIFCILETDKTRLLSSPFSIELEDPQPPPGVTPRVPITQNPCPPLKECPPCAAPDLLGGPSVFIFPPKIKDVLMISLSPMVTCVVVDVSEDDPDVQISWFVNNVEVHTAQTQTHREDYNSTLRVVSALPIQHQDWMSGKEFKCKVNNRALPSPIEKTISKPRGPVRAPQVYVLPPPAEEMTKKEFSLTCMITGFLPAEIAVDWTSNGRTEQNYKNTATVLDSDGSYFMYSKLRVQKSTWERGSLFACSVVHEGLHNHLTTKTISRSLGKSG

T2: human CD80-murine Ig fusion protein (human)
T2 construct: Bought (Ancell #510-820); also called hCD80-mIg; human CD80-murine IgG
T2 chain: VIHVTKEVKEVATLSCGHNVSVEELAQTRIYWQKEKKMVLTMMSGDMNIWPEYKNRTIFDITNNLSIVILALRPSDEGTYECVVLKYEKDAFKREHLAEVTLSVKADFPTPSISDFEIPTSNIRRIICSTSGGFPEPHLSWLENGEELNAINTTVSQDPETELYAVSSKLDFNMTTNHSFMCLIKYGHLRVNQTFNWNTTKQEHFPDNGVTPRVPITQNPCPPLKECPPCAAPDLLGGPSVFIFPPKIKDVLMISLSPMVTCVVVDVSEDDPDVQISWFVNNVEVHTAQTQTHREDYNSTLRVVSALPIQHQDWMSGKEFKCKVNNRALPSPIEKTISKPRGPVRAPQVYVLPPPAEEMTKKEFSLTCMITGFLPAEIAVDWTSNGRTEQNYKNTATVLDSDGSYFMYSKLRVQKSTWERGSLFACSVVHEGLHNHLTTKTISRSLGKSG

T3: full-length human CD86 on HEK293 cells (human, UniProt P42081 24-329)
T3 sequence: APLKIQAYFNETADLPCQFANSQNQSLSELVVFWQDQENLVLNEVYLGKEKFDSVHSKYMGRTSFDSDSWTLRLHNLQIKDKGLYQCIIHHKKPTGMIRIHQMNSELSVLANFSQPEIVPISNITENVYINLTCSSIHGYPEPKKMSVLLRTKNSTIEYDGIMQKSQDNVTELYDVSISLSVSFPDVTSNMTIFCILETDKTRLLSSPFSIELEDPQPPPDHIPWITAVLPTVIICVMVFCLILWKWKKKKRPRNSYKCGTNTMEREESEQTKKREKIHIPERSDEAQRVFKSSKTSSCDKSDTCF

T4: monomeric hCD86 ECD (papain-digested hCD86-mIg) (human, UniProt P42081 24-243)
T4 construct: also called monomeric hCD86-mIg ligand; monomeric CD86 ECD
T4 chain: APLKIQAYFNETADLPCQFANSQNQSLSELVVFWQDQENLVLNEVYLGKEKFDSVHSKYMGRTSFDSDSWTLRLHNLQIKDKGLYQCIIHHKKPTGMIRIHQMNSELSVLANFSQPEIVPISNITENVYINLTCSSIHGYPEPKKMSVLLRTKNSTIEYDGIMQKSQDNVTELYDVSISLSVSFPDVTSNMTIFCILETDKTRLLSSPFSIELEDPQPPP

B1: D3-14-IgG2 (Fc fusion)
chain: MHVAQPAVVLASSRGIASFVCEYESPGKANEIRVTVLRQADSQVTEVCAMTYMKGDELTFLDDPSCTGTFSGNQVNLTIQGLRAADTGLYICKVELMYPPPYYLGIGNGTQIYVIDPEPCPDSDERKCCVECPPCPAPPVAGPSVFLFPPKPKDTLMISRTPEVTCVVVDVSHEDPEVQFNWYVDGVEVHNAKTKPREEQFNSTFRVVSVLTVVHQDWLNGKEYKCKVSNKGLPAPIEKTISKTKGQPREPQVYTLPPSREEMTKNQVSLTCLVKGFYPSDIAVEWESNGQPENNYKTTPPMLDSDGSFFLYSKLTVDKSRWQQGNVFSCSVMHEALHNHYTQKSLSLSPG
B2: D3-17-IgG2 (Fc fusion)
chain: B1 chain with A85M
B3: D3-IgG2 (Fc fusion)
chain: B1 chain with D41G, I106F
notes: also called clone D3
B4: D3-12-IgG2 (Fc fusion)
chain: B1 chain with D41G
B5: D3-20-IgG2 (Fc fusion)
chain: B1 chain with D56N, A85M
B6: D3-31-IgG2 (Fc fusion)
chain: B1 chain with G55E
B7: D3-75-IgG2 (Fc fusion)
chain: B1 chain with I32V, G55E, D56N, A85M
B8: D3-29-IgG2 (Fc fusion)
chain: B1 chain with E24A, A85M
B9: D3-4-IgG2 (Fc fusion)
chain: B1 chain with I106F
notes: also called D3-04-IgG2
B10: D3-27-IgG2 (Fc fusion)
chain: B1 chain with I32V, D56N, A85M
B11: D3-53-IgG2 (Fc fusion)
chain: B1 chain with D41G, L104E
B12: D3-11-IgG2 (Fc fusion)
chain: B1 chain with D41G, A85M, I106F
B13: D1-IgG2 (Fc fusion)
chain: B1 chain with G27H, N30T, D41N, S65F

Biological target: T1, human CD86-murine Ig fusion protein
Test: SPR Biacore, hCD86-mIg captured

| Binding Avidity (Relative to Orencia) | Kd | Binder |
| --- | --- | --- |
| > 40 fold | < 131 pM | B1 |
| > 40 fold | < 131 pM | B2 |
| > 40 fold | < 131 pM | B3 |
| > 40 fold | < 131 pM | B4 |
| – | 131 to 262 pM | B5 |
| > 40 fold | < 131 pM | B6 |
| > 40 fold | < 131 pM | B7 |
| > 40 fold | < 131 pM | B8 |
| > 40 fold | < 131 pM | B9 |
| – | 131 to 262 pM | B10 |
| > 40 fold | < 131 pM | B11 |
| > 40 fold | < 131 pM | B12 |

Biological target: T2, human CD80-murine Ig fusion protein
Test: SPR Biacore, hCD80-mIg captured

| Kd | Binding Avidity (Relative to Orencia) | Binder |
| --- | --- | --- |
| 439 to 1750 pM | – | B1 |
| 439 to 1750 pM | – | B2 |
| 439 to 1750 pM | – | B3 |
| < 439 pM | > 2 fold | B4 |
| 439 to 1750 pM | – | B5 |
| < 439 pM | > 2 fold | B6 |
| < 439 pM | > 2 fold | B7 |
| 439 to 1750 pM | – | B8 |
| 439 to 1750 pM | – | B9 |
| 439 to 1750 pM | – | B10 |
| < 439 pM | > 2 fold | B11 |
| 439 to 1750 pM | – | B12 |
| < 439 pM | > 2 fold | B13 |

biological target: T3, full-length human CD86 on HEK293 cells; test: cell-based or functional assay

| Mean IC50 (nM), CD4+ T cell proliferation | Binder |
| --- | --- |
| 0.04 nM | B1 |
| 0.03 nM | B2 |
| 0.04 nM | B3 |
| 0.04 nM | B4 |
| 0.04 nM | B5 |
| 0.03 nM | B6 |
| 0.03 nM | B7 |
| 0.04 nM | B8 |
| 0.03 nM | B9 |
| 0.04 nM | B10 |
| 0.02 nM | B11 |
| 0.03 nM | B12 |

Biological target: T4, monomeric hCD86 ECD (papain-digested …)
Test: SPR Biacore, fusion protein captured, monomeric hCD86 ECD in flow
Experimental: Regeneration between cycles was performed by 3 min incubation with 10 mM glycine buffer (pH 1.7) at 30 μl/min.
For kinetic analysis, data from monomeric binding assays were selected as described above except that association data selection began and ended 5 s from the injection start and stop times, and dissociation data selection started 5 s after the injection stop time, and typically included 1-60 s of the dissociation period. Such data were also analyzed for steady state equilibrium affinities using the BIAevaluation software. Steady state binding levels for each concentration (Responseeq (“Req”) values) were averaged over 5-20 s range near the end of the sample injection using the BIAevaluation “General fit: average” function.

| Binding Affinity (Relative to LEA29Y-Ig) | Kd | Binder |
| --- | --- | --- |
| > 5 fold | < 336000 pM | B1 |
| > 5 fold | < 336000 pM | B2 |
| > 5 fold | < 336000 pM | B3 |
| > 5 fold | < 336000 pM | B4 |
| – | 336000 to 840000 pM | B5 |
| > 5 fold | < 336000 pM | B6 |
| > 5 fold | < 336000 pM | B8 |
| > 5 fold | < 336000 pM | B9 |
| – | 336000 to 840000 pM | B10 |
| > 5 fold | < 336000 pM | B11 |
| > 5 fold | < 336000 pM | B12 |

Biological target: T1, human CD86-murine Ig fusion protein
Test: SPR Biacore, hCD86-mIg captured; upper end of the KD bin (2x Orencia)
Experimental: (§1) All Biacore™ analyses were performed on a Biacore™ 2000 system (GE Healthcare) at room temperature (RT, 25° C.). HBS-EP buffer (10 mM HEPES (pH 7.4), 150 mM NaCl, 3 mM EDTA, 0.005% surfactant P20) was used as the flow buffer for all experiments.
(§2) Rabbit anti-mouse IgG antibody (GE Healthcare, #BR-1005-14) was immobilized on CM5 sensor chips (GE Healthcare, #BR-1000-14) according to the manufacturer's protocol. Antibody was diluted to 30 μg/ml in immobilization buffer (10 mM sodium acetate, pH 5.0 (BR-1003-51)). At a flow rate of 5 μl/minute, sensor chip CM5 was activated with a 35 μl injection of a mixture of 1-Ethyl-3-[3-dimethylaminopropyl]carbodiimide hydrochloride (EDC) and N-hydroxysuccinimide (NHS) (made by mixing equal volumes of 11.5 mg/ml EDC and 75 mg/ml NHS) (GE Healthcare, #BR-1000-50), followed by a 35 μl injection of undiluted antibody. Un-reacted sites were quenched with 35 μl of 1M ethanolamine-HCL, pH 8.5 (GE Healthcare, #BR-1000-50). […] CTLA-4 ligands human CD80-murine Ig (hCD80-mIg) (Ancell, #510-820) or human CD86-murine Ig (hCD86-mIg) (Ancell, #509-820) were bound to antibody-coated sensor chips by injection of 10 μl or 16 μl, respectively, ligand solution (2 μg/ml protein in HBS-EP buffer [10 mM HEPES pH 7.4, 150 mM NaCl, 3 mM EDTA, 0.005% (v/v) surfactant P-20, GE Healthcare, #BR-1001-88]) at a flow rate of 10 μl/min.

| Kd | Binder |
| --- | --- |
| ≤ 2650 pM | B13 |

Biological target: T1, human CD86-murine Ig fusion protein
Test: SPR Biacore, hCD86-mIg captured; lower end of the KD bin (10x Orencia)
Experimental: as §1, §2

| Kd | Binder |
| --- | --- |
| ≥ 523 pM | B13 |
